{
  "source": "the DeepSol protein solubility set",
  "data": [
    {"experiment": "soluble on expression in E. coli; label from the status in PepcDB or PDB records", "values": [
      {"sequence": "MKILKKIFQVIVKIINHCVPVDSRSLYFIPHPNCRTDKYDIINYSSDNVLVLLNYLLKKDSAEYYKIYVEIYDSSRISEYQEYIYGINPNIRCTFLCACVGRFFFNKVSFKDMLYAFFCFCRASKCFTATFYYDFSFKKRSQQIICLGYYTPFKDDYHMGDHSYDKFRNTTCNSFDYSIATSCLSARIISIDCGISYDKFKVLGFPRNDLLISKNNCNVIKREISKFAGYDVTKYIVYTPTFRDYETVTEGNLRSILGYVDCDLLKLSKILLKFNAALILKLHPLQNKTVLKKDLPKGILVFEQTYKYGLYDLLSFSDGMITDYTSTYFDFLLVNKPVIFNFYDIEEYRRVRGFSFEPIEFFCAGDIVYNYNELIDAVMGLLAGKDIHAEHRRHISLLMNQFQDDNSTKRICDIFLNEILEHHHHHH", "soluble on expression in E. coli": "not soluble"},
      {"sequence": "MLDHNRLEEFIEQIRLTPAIWKNREFDISREHMNEIWAHFGHTFDISPKEAEMQWEYLIRLHRFMNRNASLEQFRIEVPSLEDDFTPADTLVAESLAIFLKPTLDELLLISKPSETSV", "soluble on expression in E. coli": "not soluble"},
      {"sequence": "MSLSALFCQAAAVAVTISGFAFSPAQTTVQVGDVITWTNMDNTLHSIVSTAVPAGAAPFTSGTFGKNETFTYTVTEAGDYTYQCGVHTSMLGAFTATITTPVVKPTLILEALYPNPASASIHIESPKSIKSIDIYSETGVLVKTLAFTSASVDVPIGELNKGAYLLRITSEDGMFDTRRIIKEGHHHHHH", "soluble on expression in E. coli": "soluble"},
      {"sequence": "MMIFEKIHTVPTSEELTNKAFKRAARAMSGKTIDGRDSRFKANESMLLTAANIFTDNLANIVRRFPSFEQLPRFYYELTDILVGVEKLKMSLASVDWASRKIHEVARSYVGKIRESDIPEPVRKEAFGRLASIINSINKDLLFLNEARNILRKLPDVQDEPTIVIAGYPNVGKSSFVSKITGATPEIAPYPFTTKGVTIGHFTRDGVRYQVMDTPGLLDRPMAERNDIERQAITAIHYLDAVVMVVIDPSESCGYELQDQRRLLAEIRENFNLPLLVVANKADRPEFMKMDEVELNMSTITGEGIEQVMDRLLEMIEEKRLRSLEEAPSEESDDESALLEHHHHHH", "soluble on expression in E. coli": "soluble"},
      {"sequence": "MGSDKIHHHHHHMNHIMLGTTNISIFPLVFGTLPLGPLQAGLSPSEGGRLIRHALEHGVTMIDTATLYDTYPHVREGIAGWQGDVTIVTKTHANDGPTARAHVEKGLRELGRERLDIVHLHGARVADPFSDRADVLAELLRMKDEGKIGHVGLSSHYICAILKAADHPEIEVVHPLINRTGMGILDGSAAEMAEAIAACARAGKGVYAMKALAGGNLIAEARASLAYVRGLEGVHGVAIGMLSEAEVEANIALFSGNAPEDEVWRQLESRRRKLRIMENFCKGCGGCVEACASGALTVVNGKAVLDEAACILCGYCAASCPEFIIRVV", "soluble on expression in E. coli": "not soluble"},
      {"sequence": "MSLIYQIAKEFDFCYGHRVWSQELNPDFSLDPCLSCRHLHGHQGKVIVHLESRELQRGMVTDFAHLNWFKRFIDEVLDHRFIIDIDDPLFPTLLPHFADKSALVWMEEGYARVDFERIKGESSPILELYESFVVVRFVPTSESIASWLLELLRSRIQPLGVKVSSVEFLETPKSRARVYNEGHHHHHH", "soluble on expression in E. coli": "soluble"},
      {"sequence": "MSLLSYQHIYHAGNLADVQKHALLALALDYLTRKDKPLSYLETHAGRGLYHLDAAEAVRTGEAGAGIGRAEGAAWFDPAHPMTRVLAAVRTDHGAMAYPGSPLVAAHLLRPGDMMHLAELHPQEHAALEQAMAGYPARVYRRDGVEMAQSLLPPEPRRGMMLIDPSYEVKSDYDRIPAVIAQLHRKWNVGVIALWYPILTDERHKVMLAALERLDLPRVLRHEVRFAPAREGHRMVGSGMFVINAPFGLADEAARLSGLFAQLEGHHHHHH", "soluble on expression in E. coli": "soluble"},
      {"sequence": "MGSDKIHHHHHHMSVTINDTSSASSTQGLSSTTAVEKNSSADLQNQFLTLLVAQLKNQDPTNPMSNDQLVSQLAQLNTVSGIEKLNTTLGSISGQINNNQSMQASTLIGHSVMIPGKDILVGKETSTPFGVELEKAAEVVTVTVNDATGKAVRTIELGTLSAGVHSFNWDSKLADGTVAPDGAYTFTVAASTGGAQQVVQPLSYAVVNSVVRGDSGALLDLGLRGKATLDDVRQIL", "soluble on expression in E. coli": "not soluble"},
      {"sequence": "MVTKTEEIQLNQLENQVENGGGGVWEYLCLVRKLKVRRSEIVLKHGLSILNDSGKRSALGPDEWTLYEQVAIAAMDCQSLGVAQNCIKVLKKKFPESKRVGKLEALLLEAKGMWEEAEKAYTSLLEDNPLDQVIHKRKVAMAKAQGKSSLAIEHLNKYLEVFMADHDAWRELAEIYVSLQMYKQAAFCYEELILTQPTLPLYHLAYADVLYTIGGLENLIAARKYYAATIDLTGGKSTRALLGICLCGSAIAQISKGRNKEDKDMAAPELQSLAATALEREYKQKAPAKLNLLTSALRNLKIA", "soluble on expression in E. coli": "not soluble"},
      {"sequence": "MNEKVFRDPVHNYIHIDNPLIYDLINTKEFQRLRRIKQVPTTAFTFHGAEHSRFSHCLGVYEIARRVTAIFEEKYADIWNKDESLVTMTAALLHDIGHGAYSHTFEVLFHTDHEAFTQEIITNPETEINAILVRHAPDFPDKVASVINHTYPNKQVVQLISSQIDCDRMDYLLRDSYFSAANYGQFDLMRILRVIRPVEDGIVFEHSGMHAVEDYIVSRFQMYMQVYFHPASRAVELILQNLLKRAQHLYPEQQAYFQKTAPGLIPFFEKKANLADYIALDDGVMNTYFQVWMASEDHILSDLASRFINRKILKSVTFDQDSQGELERLRQLVESVGFDPDYYTGIHINFDLPYDIYRPELENPRTQIEMMQKDGSLAELSQLSPIVKALTGTTYGDRRFYFPKEMLELDDLFAPSKETFMSYISNGHFHFSQ", "soluble on expression in E. coli": "not soluble"},
      {"sequence": "GWNECNDKLRDISRSFWRGDQGYLKEFATRLMGSRDIYSAANWPYKLTVNYITYHDGFTLQDLVSYKHKHNEANGEENRDGHGDNRSENYGVEGETENIMIIATREKQKRNLIASLLFAFGIPHILTADVLSHSQDGNNNAYCQDNKTSWINWSETERKAHFKTWMAQMVANRHQYMVPFIRAFSGENRNNNRIFWRRTDGRLMEHDDWNRLSSVALHLGIGKDGQELVYLINQTNATARFKLPNERNQEWVTICDTNVRNLNPGHAEGEVLLSPTSMVILHYQPKPNSPQGEQLQS", "soluble on expression in E. coli": "not soluble"},
      {"sequence": "MEYLNVAEIKALLNSTISKLNPRYTSNYMIVTAILTGARLSEIAGLTWNDINFNFNTININKSYDYFAKSFKPTKNKSSNRIIKINNTLCDVLKELRTNNTDLVFKNKRGLIPTSNAVNKALRARLEELNINRRNFHFHSLRHSHVAFLLSQGIDIYPIAQRLGHSDITTTTRTYAYLIEEYKDKNDAIIIAGLDKLEHHHHHH", "soluble on expression in E. coli": "soluble"},
      {"sequence": "MNERLKEKLAVLPEQPGCYLMKDKHGTVIYVGKAKSLKERVRSYFTGTHDGKTQRLVEEIADFEYIVTSSNAEALILEMNLIKKHDPKYNVMLKDDKSY", "soluble on expression in E. coli": "soluble"},
      {"sequence": "MSLLLIGNGRLITRDAQNHFFENGCVAIDGQVVKQVGTTEELKQAYPEATFIDAKGGVIMPGFINMHNHIYSTFARGLSLTNYHPKNFMDILVDQWWRIDRALTLEDTYQSGKVAYLDSIRNGVTTVFDHHASYGEITGSLTQLSNAADELGIRTCLCYEVSDRDGEQKMREAVQENAAFIKASSLRNDDMQKAMMGMHAAFTLSDASLELCAANTPDGIGYHIHIAEDLADVHDSLKKYGKPIVNRLFDLGILGKQTMAGHCIHIGPHEMELLRDTDTMVVTNPESNMGNAVGCPPAMRMFNEYGILMGLGTDGYTNDVTESYKVGNVIHKHHLADPNAAWAEIPTMLFDNNPQMANRYFKTKLGVLEPNAAADVIIVDYHGPTPMTKENYNMHILFGMNGGMVTDTVINGEIRMRNREVQGIDEEKVWHDAQTQAQSFWKRVNQEGHHHHHH", "soluble on expression in E. coli": "soluble"},
      {"sequence": "MATFNLNGLGTPKSATYDNESAYRELLSRVNNGESIVVSVYTDKDNYPAFGIETKKVARFKVRVNQSLLSLLVGYLNNSTVNEDTVRANEVEPNEEGQDFTTDLFKLLIDEGFTPQIAPLFRTVYGYVNAVFNFPNGRMYFRLEHTDELMDYLADKKLL", "soluble on expression in E. coli": "not soluble"},
      {"sequence": "MNDITQLRQNVLEKAHQEGQQCLKIATDSLDTDFKERQQQGLHDLKAKRQKELKALEQQFQVAQQQLKNQERQALLALKQDSIKELFEASLEKMTNFSKEEELAFLKQVLSKYPEQPLQVTFGEKTGQKFSSYDCAELRLAFPQLSYNQELIPQEAGFLVSLDQVDDNYLYRYLLESVLKEESSRIIDMLFSEI", "soluble on expression in E. coli": "not soluble"},
      {"sequence": "MAPWIGGKRNLARRICAILDRSPCLTYAEPFVGMAGIFLRRSSRPRAEVINDRGRDVANLFRILQRHYPQFLDTLRFQLTTRAEFERLGATDPDTLTDLERAARFLYLQRTAFGGKVSGRNFGVSSHRPGRFNLTTLEPMLEDLHSRLAGVIVECLDWADFLARYDRPETLFYLDPPYWGSETDYGRGLFQREDFGLMAERLAKLQGRFLLSINDVPQIRAIFGRFRITEVTTTYSISGSAKGNGTARPELLVSNWDIGEEG", "soluble on expression in E. coli": "not soluble"},
      {"sequence": "MAGDPMTSLTYLQGYPEHLLAQVRALIAEQRLGAVLEKRYPGAHDYATDKALYHYTQELKSQFLRNAPPINKVMYDSKIHVLKNALGLHTAVSRVQGGKLKAKAEIRVATVFRNAPEPFLRMIVVHELAHLKEKDHNKAFYQLCCHMEPQYHQLEFDTRLWLTHQALSAQLEHHHHHH", "soluble on expression in E. coli": "not soluble"},
      {"sequence": "MNETPTRVYAEIDLDAVRANVRALRARAPRSALMAVVKSNAYGHGAVPCARAAQEAGAAWLGTATPEEALELRAAGIQGRIMCWLWTPGGPWREAIETDIDVSVSGMWALDEVRAAARAAGRTARIQLKADTGLGRNGCQPADWAELVGAAVAAQAEGTVQVTGVWSHFACADEPGHPSIRLQLDAFRDMLAYAEKEGVDPEVRHIANSPATLTLPETHFDLVRTGLAVYGVSPSPELGTPAQLGLRPAMTLRASLALVKTVPAGHGVSYGHHYVTESETHLALVPAGYADGIPRNASGRGPVLVAGKIRRAAGRIAMDQFVVDLGEDLAEAGDEAVILGDAERGEPTAEDWAQAAHTIAYEIVTRIGGRVPRVYLGGLEHHHHHH", "soluble on expression in E. coli": "soluble"},
      {"sequence": "MAGEKAQKKGKEKWKEKTWYTVESPPYLGSKEVTVALGEDPESMVNRIVEVPISDLTGNFKKSNEKALFRITGCEGTKCKTIFIGHYIGDDYIRRLVRRRKERIDIIEDVKTSDGSIITVKIVVVSDGKLTNTKKSEIRKALTSFIVSKGSQLSYADFVRYLIGDDSYNDMVEATKNIYPLRKIEIRKSELVSLSGMQEPQKNEPAPGGEAIAQNLEHHHHHH", "soluble on expression in E. coli": "soluble"},
      {"sequence": "MAHHHHHHMYRAHSKDINRNKGFHPLTYRNLRRVEQLKEEAELNKQKAEERQKELQRDQEERRYDELVLANSADSLSGELARYRQTRSIFAAEYEADAKAAKDASVASLPSPQVSKPEVQLKTSAGASFPVNSFLSKFKKEESYGSTCVMVKAEARDNTAAAASSAVASAEAETPVRKRPRDDATSNSPSSTHNGSGYGEGATKRGGDGGESAPATGFVTSAEAAQLRKELNLAQKQRHDPLMRVKEYQNSCVAAAARQLDHEQATGAVAKREDDQDKLQSRIRELLALKKKKK", "soluble on expression in E. coli": "not soluble"},
      {"sequence": "MKEVKVGIGDYAVGKGNGIISTYGLGSCVGITLYDRVTKVGGLLHALLPEAARYGHRGNPAKYVDTGLQLLLKEVIKLGASKFRLEAKLFGGAQMFDNIRSEELKIGEKNVQVAKRELRKLGIRLVAEDTGGKGGRTIYLDLSTGKVRMRKVTEGKVIEKVY", "soluble on expression in E. coli": "soluble"},
      {"sequence": "MRGSHHHHHHTDPALRAAIIPKNYARLESGYREKALKIYPWVCGRCSREFVYSNLRELTVHHIDHDHTNNPEDGSNWELLCLYCHDHEHSKYTEADQYGTTVIAGEDAQKDVGEAKYNPFADLKAMMNKKKGLCGR", "soluble on expression in E. coli": "soluble"}
    ]}
  ]
}
